Experimental data published in US20150017154A1 (NEXVET AUSTRALIA, published 2015).
Numbering of substitutions follows the chain as printed.

Legend:
[1] = target: T1, complement C1q (from human serum) (human, UniProt P02745 23-245; P02746 28-253; P02747 29-245); assay: C1q ELISA: antibody captured on mouse NGF-coated plate, human serum, anti-C1q-HRP
T1 construct: Native C1q in human serum diluted 1/100
Description: CHO cell transfectant supernatants from Example 2 were incubated with plates coated with […] NGF to capture the antibodies. The plates were washed and then incubated with human serum and bound complement C1q was measured by binding of anti-human C1q polyclonal antibody HRP and developed as above.
Plates were coated with 100 μl/well of 5 μg/ml mouse NGF and blocked with 5% BSA/PBS. Coated wells were incubated for 1 hour at room temperature with cell culture supernatants, containing recombinant caninised anti-NGF IgG, diluted in PBS/1% BSA (100 μl/well). The plates were washed and incubated for 1 hour at room temperature with 100 μl/well of human serum diluted 1/100 in veronal buffered saline containing 0.5 mM MgCl₂, 2 mM CaCl₂, 0.05% Tween-20, 0.1% gelatin and 0.5% BSA. After washing, plates were incubated with 100 μl of a 1/800 dilution of sheep anti-C1q-HRP (Serotec) in PBS/1% BSA. After washing, plates were developed by the addition of 100 μl TMB substrate (Thermo Scientific). Development was stopped by the addition of 100 μl of 2N H₂SO₄ and absorbance read at 450 nm.

[2] = target: T2, mouse NGF (mouse, UniProt P01139 122-241, limits assumed); assay: ELISA, CHO supernatant on coated NGF, anti-canine IgG-HRP
T2 construct: Coated on ELISA plates; also called murine NGF
T2 sequence (P01139 122-241 limits assumed): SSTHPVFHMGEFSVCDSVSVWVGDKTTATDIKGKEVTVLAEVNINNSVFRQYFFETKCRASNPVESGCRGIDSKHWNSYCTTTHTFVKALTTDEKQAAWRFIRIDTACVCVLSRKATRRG
Description: Combinations of caninised heavy and light chain cDNAs were transfected into CHO cells, the supernatants harvested and reacted in ELISA format with either canine or murine NGF. Following incubation and wash steps, the bound canine antibody was detected by reactivity with a goat-anti canine IgG specific polyclonal antibody linked to horseradish peroxidase (HRP) and developed using TMB. The optical density of the resulting product was measured at 450 nm and compared with that from mock empty vector transfected supernatant (denoted as “Mock” in FIG. 1).

[3] = target: T1, complement C1q (from human serum); assay: C1q ELISA: antibody captured on NGF-coated plate, human serum, anti-C1q-HRP
[4] = target: T2, mouse NGF; assay: binding ELISA to mouse NGF, CHO supernatant dilutions
[5] = target: NGF (species not stated, TF-1 cell proliferation assay); assay: cell-based or functional assay
[6] = target: T2, mouse NGF; assay: binding ELISA to mouse NGF, CHO supernatants undiluted and 1/100
Description: A comparison of the binding of N-glycosylated and aglycosylated variants of anti-canine-NGF monoclonal antibodies to NGF with HCB and HCC heavy chain isotypes was carried out. Expression vectors encoding the light and heavy chain pairs described by SEQ ID NO:5 and SEQ ID NO:7 (HCB), SEQ ID NO:5 and SEQ ID NO:16 (HCB*), SEQ ID NO:5 and SEQ ID NO:8 (HCC), or SEQ ID NO:5 and SEQ ID NO:17 (HCC*) were co-transfected into CHO cells and the supernatants compared by binding ELISA to mouse NGF.

T1 sequence (P02745 23-245 limits assumed, chain 1 of 3): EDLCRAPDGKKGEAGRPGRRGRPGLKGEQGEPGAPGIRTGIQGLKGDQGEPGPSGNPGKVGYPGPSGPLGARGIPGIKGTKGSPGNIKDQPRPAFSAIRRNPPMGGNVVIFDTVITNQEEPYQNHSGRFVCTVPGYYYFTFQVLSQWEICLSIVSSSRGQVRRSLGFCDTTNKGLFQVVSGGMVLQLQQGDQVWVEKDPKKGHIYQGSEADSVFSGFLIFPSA
T1 sequence (P02746 28-253 limits assumed, chain 2 of 3): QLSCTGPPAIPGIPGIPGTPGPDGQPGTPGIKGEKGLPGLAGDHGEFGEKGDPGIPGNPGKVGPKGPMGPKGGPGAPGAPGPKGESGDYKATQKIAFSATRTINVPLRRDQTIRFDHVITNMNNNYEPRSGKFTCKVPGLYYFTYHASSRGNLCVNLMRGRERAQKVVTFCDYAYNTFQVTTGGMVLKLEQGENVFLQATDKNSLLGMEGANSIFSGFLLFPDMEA
T1 sequence (P02747 29-245 limits assumed, chain 3 of 3): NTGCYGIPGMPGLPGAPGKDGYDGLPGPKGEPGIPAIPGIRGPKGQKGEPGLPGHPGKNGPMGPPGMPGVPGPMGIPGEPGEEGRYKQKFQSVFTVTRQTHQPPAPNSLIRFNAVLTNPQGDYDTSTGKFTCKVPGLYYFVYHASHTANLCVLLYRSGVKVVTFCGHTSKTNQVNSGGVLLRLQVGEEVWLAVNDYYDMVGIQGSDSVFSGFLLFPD

B1: caninised anti-NGF antibody comprising the caN-HCA heavy chain and caN-kLC light chain (antibody)
heavy: EVQLVESGGDLVNPGGTLTLSCVVSGFSLTNNNVNWVRQALGRGLEWVGGVWAGGATDYNSALKSRLTITRDTSKSTVFLKMHSLQSEDTATYYCARDGGYSSSTLYAMDAWGQGTLVTVSSASTTAPSVFPLAPSCGSTSGSTVALACLVSGYFPEPVTVSWNSGSLTSGVHTFPSVLQSSGLHSLSSMVTVPSSRWPSETFTCNVVHPASNTKVDKPVFNECRCTDTPPCPVPEPLGGPSVLIFPPKPKDILRITRTPEVTCVVLDLGREDPEVQISWFVDGKEVHTAKTQSREQQFNGTYRVVSVLPIEHQDWLTGKEFKCRVNHIDLPSPIERTISKARGRAHKPSVYVLPPSPKELSSSDTVSITCLIKDFYPPDIDVEWQSNGQQEPERKHRMTPPQLDEDGSYFLYSKLSVDKSRWQQGDPFTCAVMHETLQNHYTDLSLSHSPGK
light: DIQMTQSPASLSLSQEEKVTITCRASEDIYNALAWYQQKPGQAPKLLIYNTDTLHTGVPSRFSGSGSGTEYSLTINSLESEDVAVYFCQHYFHYPRTFGAGTKVELKRNDAQPAVYLFQPSPDQLHTGSASVVCLLNSFYPKDINVKWKVDGVIQDTGIQESVTEQDKDSTYSLSSTLTMSSTEYLSHELYSCEITHKSLPSTLIKSFQRSECQRVD
notes: Tested as CHO cell transfectant supernatant; also called A-HCA; caN-HCA+caN-kLC1
[1]
  binding result: no binding
[2]
  binding result: binds

B2: variant caninised anti-NGF antibody (caN2) with light chain SEQ ID NO:10 (VL2 and canine kappa constant domain) and heavy chain SEQ ID NO:11 (HCA variant-VH2 … (antibody)
heavy: B1 heavy with K81Q, Q86R
light: B1 light with Q3V, Y71F, N76S, S80P, F87Y
notes: also called anti-canine NGF monoclonal antibody (canine HCA type heavy chain)
[3]
  binding result: no binding (tested: 4, 2 and 1 ug/ml)
[4]
  binding result: binds
[5]
  IC50 in the TF-1 NGF neutralisation assay: 0.013 nM

B3: caninised anti-NGF antibody comprising the caN-HCB heavy chain and the caN-kLC light chain (antibody)
heavy: EVQLVESGGDLVNPGGTLTLSCVVSGFSLTNNNVNWVRQALGRGLEWVGGVWAGGATDYNSALKSRLTITRDTSKSTVFLKMHSLQSEDTATYYCARDGGYSSSTLYAMDAWGQGTLVTVSSASTTAPSVFPLAPSCGSTSGSTVALACLVSGYFPEPVTVSWNSGSLTSGVHTFPSVLQSSGLYSLSSMVTVPSSRWPSETFTCNVAHPASKTKVDKPVPKRENGRVPRPPDCPKCPAPEMLGGPSVFIFPPKPKDTLLIARTPEVTCVVVDLDPEDPEVQISWFVDGKQMQTAKTQPREEQFNGTYRVVSVLPIGHQDWLKGKQFTCKVNNKALPSPIERTISKARGQAHQPSVYVLPPSREELSKNTVSLTCLIKDFYPPDIDVEWQSNGQQEPESKYRTTPPQLDEDGSYFLYSKLSVDKSRWQRGDTFICAVMHEALHNHYTQESLSHSPGK
light: B1 light
notes: Tested as CHO cell transfectant supernatant; also called caN-HCB+caN-kLC1
[1]
  binding result: binds
[4]
  binding result: binds

B4: aglycosylated variant anti-canine-NGF monoclonal antibody HCB* (SEQ ID NO:5 and SEQ ID NO:16) (antibody)
heavy: B3 heavy with N305A
light: B1 light
notes: Tested as CHO cell transfectant supernatant
[3]
  binding result: no binding
[6]
  binding result: binds

B5: caninised anti-NGF antibody comprising the caN-HCC heavy chain and a caN-kLC light chain (antibody)
heavy: EVQLVESGGDLVNPGGTLTLSCVVSGFSLTNNNVNWVRQALGRGLEWVGGVWAGGATDYNSALKSRLTITRDTSKSTVFLKMHSLQSEDTATYYCARDGGYSSSTLYAMDAWGQGTLVTVSSASTTAPSVFPLAPSCGSQSGSTVALACLVSGYIPEPVTVSWNSVSLTSGVHTFPSVLQSSGLYSLSSMVTVPSSRWPSETFTCNVAHPATNTKVDKPVAKECECKCNCNNCPCPGCGLLGGPSVFIFPPKPKDILVTARTPTVTCVVVDLDPENPEVQISWFVDSKQVQTANTQPREEQSNGTYRVVSVLPIGHQDWLSGKQFKCKVNNKALPSPIEEIISKTPGQAHQPNVYVLPPSRDEMSKNTVTLTCLVKDFFPPEIDVEWQSNGQQEPESKYRMTPPQLDEDGSYFLYSKLSVDKSRWQRGDTFICAVMHEALHNHYTQISLSHSPGK
light: B1 light
notes: Tested as CHO cell transfectant supernatant; also called C-HCC; caN-HCC+caN-kLC1
[1]
  binding result: binds
[6]
  binding result: binds

B6: aglycosylated variant anti-canine-NGF monoclonal antibody HCC* (SEQ ID NO:5 and SEQ ID NO:17) (antibody)
heavy: B5 heavy with N303A
light: B1 light
notes: as for B4
[3]
  binding result: binds
[6]
  binding result: binds

B7: caninised anti-NGF antibody comprising the caN-HCD heavy chain and caN-kLC light chain (antibody)
heavy: EVQLVESGGDLVNPGGTLTLSCVVSGFSLTNNNVNWVRQALGRGLEWVGGVWAGGATDYNSALKSRLTITRDTSKSTVFLKMHSLQSEDTATYYCARDGGYSSSTLYAMDAWGQGTLVTVSSASTTAPSVFPLAPSCGSTSGSTVALACLVSGYFPEPVTVSWNSGSLTSGVHTFPSVLQSSGLYSLSSTVTVPSSRWPSETFTCNVVHPASNTKVDKPVPKESTCKCISPCPVPESLGGPSVFIFPPKPKDILRITRTPEITCVVLDLGREDPEVQISWFVDGKEVHTAKTQPREQQFNSTYRVVSVLPIEHQDWLTGKEFKCRVNHIGLPSPIERTISKARGQAHQPSVYVLPPSPKELSSSDTVTLTCLIKDFYPPEIDVEWQSNGQPEPESKYHTTAPQLDEDGSYFLYSKLSVDKSRWQQGDTFTCAVMHEALQNHYTDLSLSHSPGK
light: B1 light
notes: also called D-HCD; caninised HCD type antibody
[1]
  binding result: no binding
